Laboratory results: the supplement of paper PMC10065799, “High-throughput profiling of sequence recognition by tyrosine kinases and SH2 domains using bacterial peptide display” (eLife, 2023)

Columns and labels:
SHP2-C SH2 = assay: SH2 binding enrichment of the phosphorylated peptide, bacterial display (enrichment ratio); higher = better substrate or ligand; peptides without Tyr show the background
c-Src SH2 = assay: as above
Grb2 SH2 = Grb2 SH2 (UniProt P62993); assay: as above
Fyn = Fyn (UniProt P06241); assay: phosphorylation enrichment, bacterial display (enrichment ratio); higher = better substrate or ligand; peptides without Tyr show the background
Sequence of Fyn (P06241 whole entry, looked up): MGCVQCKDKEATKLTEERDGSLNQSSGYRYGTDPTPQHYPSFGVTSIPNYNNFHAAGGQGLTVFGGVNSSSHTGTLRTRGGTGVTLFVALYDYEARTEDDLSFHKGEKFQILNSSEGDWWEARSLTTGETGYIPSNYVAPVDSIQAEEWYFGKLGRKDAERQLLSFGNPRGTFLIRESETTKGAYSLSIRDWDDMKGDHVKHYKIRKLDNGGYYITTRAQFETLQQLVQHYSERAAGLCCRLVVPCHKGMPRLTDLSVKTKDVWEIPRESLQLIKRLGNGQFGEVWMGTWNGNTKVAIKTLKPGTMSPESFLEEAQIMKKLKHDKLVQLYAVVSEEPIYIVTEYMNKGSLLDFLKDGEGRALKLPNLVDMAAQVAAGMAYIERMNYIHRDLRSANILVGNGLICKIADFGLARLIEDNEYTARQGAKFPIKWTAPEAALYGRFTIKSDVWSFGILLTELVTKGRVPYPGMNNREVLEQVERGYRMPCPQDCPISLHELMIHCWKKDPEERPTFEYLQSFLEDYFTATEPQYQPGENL

Fes = Fes (UniProt P07332); assay: as above
AncSZ = assay: as above
FGFR1 = FGFR1 (UniProt P11362); assay: as above
Sequence of FGFR1 (P11362 whole entry, looked up): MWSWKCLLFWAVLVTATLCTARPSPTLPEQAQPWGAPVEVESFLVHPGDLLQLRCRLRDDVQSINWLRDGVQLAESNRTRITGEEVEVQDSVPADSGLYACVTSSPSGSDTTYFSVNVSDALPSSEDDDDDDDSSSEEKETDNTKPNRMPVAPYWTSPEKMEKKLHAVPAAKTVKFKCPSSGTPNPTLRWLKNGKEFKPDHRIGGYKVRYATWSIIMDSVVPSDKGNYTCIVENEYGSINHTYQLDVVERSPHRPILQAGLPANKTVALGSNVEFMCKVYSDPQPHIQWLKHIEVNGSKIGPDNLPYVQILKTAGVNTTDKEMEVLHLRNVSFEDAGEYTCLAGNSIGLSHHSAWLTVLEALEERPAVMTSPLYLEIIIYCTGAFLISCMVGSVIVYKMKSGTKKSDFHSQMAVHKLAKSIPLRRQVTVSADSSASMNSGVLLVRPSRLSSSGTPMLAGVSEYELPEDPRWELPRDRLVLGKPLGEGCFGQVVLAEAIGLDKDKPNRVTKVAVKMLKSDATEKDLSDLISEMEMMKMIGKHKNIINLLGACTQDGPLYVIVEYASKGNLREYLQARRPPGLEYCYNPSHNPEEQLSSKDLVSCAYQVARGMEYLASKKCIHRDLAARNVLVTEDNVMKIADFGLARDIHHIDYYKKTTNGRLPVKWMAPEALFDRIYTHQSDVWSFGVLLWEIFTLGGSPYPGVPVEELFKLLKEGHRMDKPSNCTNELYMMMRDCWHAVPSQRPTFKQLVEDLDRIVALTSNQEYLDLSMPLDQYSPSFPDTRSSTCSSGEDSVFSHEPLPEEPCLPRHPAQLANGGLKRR

EPHB2 = EPHB2 (UniProt P29323); assay: as above
MERTK = MERTK (UniProt Q12866); assay: as above
Sequence of MERTK (Q12866 whole entry, looked up): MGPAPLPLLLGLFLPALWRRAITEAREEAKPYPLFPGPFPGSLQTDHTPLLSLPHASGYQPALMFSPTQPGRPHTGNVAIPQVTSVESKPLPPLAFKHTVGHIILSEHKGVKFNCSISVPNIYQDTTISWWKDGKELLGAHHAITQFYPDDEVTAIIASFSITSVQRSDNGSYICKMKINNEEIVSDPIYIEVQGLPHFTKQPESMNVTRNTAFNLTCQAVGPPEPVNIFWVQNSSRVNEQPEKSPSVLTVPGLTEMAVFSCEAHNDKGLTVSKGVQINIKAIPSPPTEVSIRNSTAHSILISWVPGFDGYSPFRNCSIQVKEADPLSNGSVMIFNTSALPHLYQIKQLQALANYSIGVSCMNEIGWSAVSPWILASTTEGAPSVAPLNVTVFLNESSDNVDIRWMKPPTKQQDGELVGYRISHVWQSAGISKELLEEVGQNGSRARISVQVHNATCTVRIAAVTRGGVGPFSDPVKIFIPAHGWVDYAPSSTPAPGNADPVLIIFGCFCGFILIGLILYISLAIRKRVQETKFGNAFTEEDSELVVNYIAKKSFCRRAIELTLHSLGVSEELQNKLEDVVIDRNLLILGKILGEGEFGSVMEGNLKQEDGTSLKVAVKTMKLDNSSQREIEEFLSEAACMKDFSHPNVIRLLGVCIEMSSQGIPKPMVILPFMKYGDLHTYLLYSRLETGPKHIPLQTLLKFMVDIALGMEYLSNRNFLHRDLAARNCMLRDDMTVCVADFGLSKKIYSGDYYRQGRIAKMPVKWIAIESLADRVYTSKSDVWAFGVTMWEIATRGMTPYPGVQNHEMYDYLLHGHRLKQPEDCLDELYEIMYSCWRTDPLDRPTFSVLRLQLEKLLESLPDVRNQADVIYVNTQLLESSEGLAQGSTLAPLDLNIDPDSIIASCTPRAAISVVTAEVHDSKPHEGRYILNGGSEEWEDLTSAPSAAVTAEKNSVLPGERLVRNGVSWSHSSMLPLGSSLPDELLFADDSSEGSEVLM

FGFR3 = FGFR3 (UniProt P22607); assay: as above
Fer (mouse) = assay: as above
Jak2 = Jak2 (UniProt O60674); assay: as above
Sequence of Jak2 (O60674 whole entry, looked up): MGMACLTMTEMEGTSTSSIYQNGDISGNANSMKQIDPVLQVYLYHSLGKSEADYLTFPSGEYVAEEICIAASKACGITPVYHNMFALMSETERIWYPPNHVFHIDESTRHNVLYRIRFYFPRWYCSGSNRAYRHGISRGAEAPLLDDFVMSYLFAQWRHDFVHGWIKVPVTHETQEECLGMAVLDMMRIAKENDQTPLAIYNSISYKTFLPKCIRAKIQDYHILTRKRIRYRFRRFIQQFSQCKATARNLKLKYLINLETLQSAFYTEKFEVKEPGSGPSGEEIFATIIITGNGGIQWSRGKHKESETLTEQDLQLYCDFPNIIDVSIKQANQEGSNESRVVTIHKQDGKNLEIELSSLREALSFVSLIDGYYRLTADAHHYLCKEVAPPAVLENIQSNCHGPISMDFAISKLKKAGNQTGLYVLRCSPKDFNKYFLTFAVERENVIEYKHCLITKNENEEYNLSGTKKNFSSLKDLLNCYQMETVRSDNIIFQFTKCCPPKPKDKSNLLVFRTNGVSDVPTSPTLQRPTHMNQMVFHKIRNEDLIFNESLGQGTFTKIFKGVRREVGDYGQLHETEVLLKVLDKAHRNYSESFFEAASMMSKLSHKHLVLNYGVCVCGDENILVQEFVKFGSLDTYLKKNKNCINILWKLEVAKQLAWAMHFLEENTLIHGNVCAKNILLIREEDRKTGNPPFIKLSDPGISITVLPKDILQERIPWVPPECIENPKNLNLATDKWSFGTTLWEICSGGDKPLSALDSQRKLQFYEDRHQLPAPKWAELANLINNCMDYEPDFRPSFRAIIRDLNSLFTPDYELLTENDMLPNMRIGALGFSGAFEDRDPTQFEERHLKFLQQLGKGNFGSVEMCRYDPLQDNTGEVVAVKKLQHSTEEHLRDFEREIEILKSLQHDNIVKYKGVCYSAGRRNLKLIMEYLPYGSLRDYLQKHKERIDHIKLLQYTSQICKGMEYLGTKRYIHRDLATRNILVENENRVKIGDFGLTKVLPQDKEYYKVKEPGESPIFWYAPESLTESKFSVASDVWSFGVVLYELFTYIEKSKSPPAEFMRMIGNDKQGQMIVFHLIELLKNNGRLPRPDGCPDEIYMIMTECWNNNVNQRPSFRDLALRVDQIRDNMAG

c-Abl (mouse) = assay: as above
EPHB1 = EPHB1 (UniProt P54762); assay: as above
Sequence of EPHB1 (P54762 whole entry, looked up): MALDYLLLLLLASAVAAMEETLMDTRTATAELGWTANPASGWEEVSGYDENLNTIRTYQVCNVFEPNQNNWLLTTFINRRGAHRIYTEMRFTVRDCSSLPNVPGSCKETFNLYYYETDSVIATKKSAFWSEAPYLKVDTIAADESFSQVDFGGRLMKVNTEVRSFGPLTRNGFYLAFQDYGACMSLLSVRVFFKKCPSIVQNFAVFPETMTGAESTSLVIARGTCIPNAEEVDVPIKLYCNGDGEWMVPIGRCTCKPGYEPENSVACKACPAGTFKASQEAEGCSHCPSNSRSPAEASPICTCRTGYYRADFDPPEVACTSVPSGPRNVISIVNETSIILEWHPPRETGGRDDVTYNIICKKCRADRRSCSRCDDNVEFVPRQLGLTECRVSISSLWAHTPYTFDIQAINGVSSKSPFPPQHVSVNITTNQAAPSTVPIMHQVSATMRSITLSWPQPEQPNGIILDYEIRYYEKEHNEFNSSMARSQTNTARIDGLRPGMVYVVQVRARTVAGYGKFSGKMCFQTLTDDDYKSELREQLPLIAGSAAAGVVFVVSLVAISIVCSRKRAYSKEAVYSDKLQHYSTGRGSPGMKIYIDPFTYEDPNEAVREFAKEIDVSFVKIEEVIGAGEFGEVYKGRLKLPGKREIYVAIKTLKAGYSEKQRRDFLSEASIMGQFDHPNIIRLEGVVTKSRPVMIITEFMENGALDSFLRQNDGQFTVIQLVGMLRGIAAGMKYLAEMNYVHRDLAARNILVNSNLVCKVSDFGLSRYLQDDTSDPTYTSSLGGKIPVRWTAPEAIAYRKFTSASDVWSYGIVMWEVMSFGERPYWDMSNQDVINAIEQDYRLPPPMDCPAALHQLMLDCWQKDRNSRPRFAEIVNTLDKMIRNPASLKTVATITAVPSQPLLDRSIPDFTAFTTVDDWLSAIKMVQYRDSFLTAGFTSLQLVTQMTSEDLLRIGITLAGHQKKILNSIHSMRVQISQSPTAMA

Hck = Hck (UniProt P08631); assay: as above
Sequence of Hck (P08631 whole entry, looked up): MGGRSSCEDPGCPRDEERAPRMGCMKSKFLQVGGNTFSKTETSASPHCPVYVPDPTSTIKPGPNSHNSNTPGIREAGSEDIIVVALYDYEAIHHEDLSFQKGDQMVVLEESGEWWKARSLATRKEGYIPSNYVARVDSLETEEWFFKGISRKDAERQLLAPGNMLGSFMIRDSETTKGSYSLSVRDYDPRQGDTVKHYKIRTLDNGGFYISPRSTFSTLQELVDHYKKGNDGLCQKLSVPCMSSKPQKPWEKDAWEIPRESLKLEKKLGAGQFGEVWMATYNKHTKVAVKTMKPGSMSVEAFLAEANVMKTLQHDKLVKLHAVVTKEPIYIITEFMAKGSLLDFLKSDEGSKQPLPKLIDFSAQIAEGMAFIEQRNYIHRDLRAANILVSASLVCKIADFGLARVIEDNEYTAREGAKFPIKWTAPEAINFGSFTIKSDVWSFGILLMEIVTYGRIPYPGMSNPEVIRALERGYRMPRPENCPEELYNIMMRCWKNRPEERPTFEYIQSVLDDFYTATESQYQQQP

c-Src = assay: as above
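Throughout, for SH2 binding enrichment of the phosphorylated peptide, bacterial display: peptide library displayed on the E. coli surface as eCPX fusions, selected cells deep-sequenced, score is each peptide's frequency after selection divided by its frequency in the input.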
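Throughout, for phosphorylation enrichment, bacterial display: 11-residue human phosphosite peptides and single-mutation variants displayed on the E. coli surface, counted by deep sequencing, each peptide's frequency after selection divided by its frequency in the unselected input library; frequency after pTyr selection over input frequency; kinase dosed for 20-30% of maximal phosphorylation in three min.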

Sequence | SH2 binding enrichment (SHP2-C SH2) | SH2 binding enrichment (c-Src SH2) | SH2 binding enrichment (Grb2 SH2) | phosphorylation enrichment (Fyn) | phosphorylation enrichment (Fes) | phosphorylation enrichment (AncSZ) | phosphorylation enrichment (FGFR1) | phosphorylation enrichment (EPHB2) | phosphorylation enrichment (MERTK) | phosphorylation enrichment (FGFR3) | phosphorylation enrichment (Fer (mouse)) | phosphorylation enrichment (Jak2) | phosphorylation enrichment (c-Abl (mouse)) | phosphorylation enrichment (EPHB1) | phosphorylation enrichment (Hck) | phosphorylation enrichment (c-Src)
SLALFYRKVFH [RBL1_Y792_YF] | 0.876 | 0.454 | 0.767 | 0.502 | 1.26 | 1.36 | 0.532 | 0.569 | 0.385 | 0.784 | 0.494 | 1.11 | 0.535 | 0.637 | 0.441 | 0.409
YSPYDYQPCLA [TNS1_Y798] | 0.546 | 0.647 | 0.746 | 4.27 | 1.28 | 2.3 | 2.63 | 4.75 | 5.67 | 1.84 | 3.46 | 1.07 | 0.973 | 3.32 | 2.41 | 3.49
PLDGEYFSLQI [TP53_Y327_T329S] | 0.836 | 0.387 | 0.762 | 3.53 | 2.23 | 3.12 | 6.64 | 1.24 | 0.737 | 4.26 | 0.749 | 5.35 | 2.77 | 1.15 | 1.76 | 5.24
PLKFLYPNIDK [STAT1_Y668_YF] | 0.647 | 0.72 | 0.714 | 1.16 | 2.18 | 1.26 | 1.54 | 1.3 | 0.846 | 0.822 | 1.13 | 1.65 | 1.38 | 0.945 | 1.09 | 0.939
NLGQQYNSPQE [UMPS_Y432] | 0.602 | 0.573 | 0.814 | 0.495 | 0.974 | 0.895 | 0.614 | 0.579 | 0.413 | 0.675 | 0.498 | 0.78 | 0.634 | 0.563 | 0.502 | 0.374
EPSLDYMVTKI [CPS1_Y768] | 0.914 | 0.379 | 1.05 | 0.646 | 1.14 | 1.22 | 0.814 | 0.727 | 0.469 | 0.797 | 0.78 | 1.05 | 0.606 | 0.756 | 0.566 | 0.582
DRLASYRDKVR [KRT12_Y139_L140R] | 0.947 | 1.09 | 0.878 | 0.372 | 0.447 | 0.466 | 0.27 | 0.338 | 0.332 | 0.425 | 0.366 | 0.587 | 0.442 | 0.294 | 0.327 | 0.347
KVALLYKPYFY [POLE_Y100_P99L] | 1.44 | 1.36 | 1.43 | 0.457 | 1.11 | 0.987 | 0.483 | 0.483 | 0.473 | 0.693 | 0.474 | 0.977 | 0.866 | 0.605 | 0.514 | 0.737
GGSSPYSRRLP [CDK13_Y351] | 0.609 | 0.525 | 0.709 | 0.403 | 0.501 | 0.549 | 0.393 | 0.314 | 0.414 | 0.39 | 0.317 | 0.4 | 0.504 | 0.327 | 0.358 | 0.393
EVEPTYVVLYD [ERCC4_Y577_R576T] | 0.563 | 0.532 | 0.775 | 6 | 1.13 | 1.76 | 5.87 | 13.7 | 3.54 | 4.01 | 1.49 | 1.1 | 0.864 | 10.9 | 3 | 4.73
RKRQFYLFKGK [RSPO4_Y112_C107R_YF] | 0.363 | 0.296 | 0.295 | 1.14 | 0.949 | 1.15 | 0.555 | 0.71 | 1.22 | 0.803 | 0.787 | 1.06 | 1.25 | 0.741 | 1.19 | 0.809
NSNAAYEQSHF [LRIF1_Y714] | 0.663 | 0.769 | 0.755 | 0.504 | 0.616 | 0.575 | 0.48 | 0.479 | 0.388 | 0.55 | 0.417 | 0.418 | 0.574 | 0.327 | 0.445 | 0.395
HFPFQCHRQLY [F12_Y53_Y53C] | 1.15 | 1.16 | 1.21 | 0.528 | 1.05 | 0.689 | 0.639 | 0.645 | 0.597 | 0.564 | 0.385 | 0.861 | 0.532 | 0.559 | 0.681 | 0.422
GLIPAYHRVIM [NMNAT1_Y64] | 0.856 | 1.2 | 1.07 | 0.558 | 0.963 | 0.881 | 0.572 | 0.504 | 0.408 | 0.612 | 0.502 | 1.16 | 0.662 | 0.571 | 0.543 | 0.414
TNFRLYLRSLE [MTM1_Y71_YF] | 0.661 | 0.449 | 0.678 | 0.449 | 1.49 | 1.37 | 0.538 | 0.782 | 0.43 | 0.964 | 0.612 | 1.29 | 0.798 | 0.895 | 0.513 | 0.476
CITIHYNYMCN [TP53_Y234_T230I] | 1.44 | 1.57 | 1.56 | 0.423 | 1.01 | 0.923 | 0.474 | 0.515 | 0.389 | 0.662 | 0.569 | 0.881 | 0.582 | 0.605 | 0.44 | 0.381
GRRNTCYASIA [ACADM_Y352_Y352C] | 7.14 | 3.58 | 0.972 | 0.442 | 0.644 | 0.557 | 0.333 | 0.365 | 0.407 | 0.432 | 0.33 | 0.48 | 0.5 | 0.336 | 0.477 | 0.495
KDDEKYLDVSR [MTM1_Y260_I264S] | 0.649 | 0.532 | 0.794 | 0.456 | 1.09 | 0.951 | 0.473 | 0.556 | 0.423 | 0.655 | 0.442 | 0.973 | 0.824 | 0.521 | 0.457 | 0.433
GYKVRYATGSI [FGFR1_Y210_W213G] | 1.11 | 1.03 | 1.1 | 0.401 | 0.625 | 0.499 | 0.416 | 0.479 | 0.32 | 0.423 | 0.34 | 0.456 | 0.478 | 0.537 | 0.434 | 0.398
ISDEAYVMAGV [ERBB2_Y772_L768S] | 0.6 | 0.543 | 0.811 | 0.603 | 0.81 | 1.15 | 0.494 | 0.53 | 0.436 | 0.736 | 0.564 | 0.656 | 0.62 | 0.495 | 0.541 | 0.504
RFQKLYLDRNL [IGFALS_Y248_L244F] | 0.771 | 0.463 | 0.793 | 0.492 | 0.761 | 0.726 | 0.636 | 0.509 | 0.342 | 0.655 | 0.224 | 0.538 | 0.486 | 0.529 | 0.569 | 0.332
LENSTYQFICV [CRB1_Y760_R764C_YF] | 0.739 | 0.457 | 0.9 | 2.23 | 1.79 | 2.12 | 3.43 | 2.39 | 2.49 | 3.21 | 8.22 | 1.37 | 1.12 | 4.2 | 3.46 | 1.84
MEIHAYRKLLE [LMNA_Y376] | 0.572 | 0.471 | 0.869 | 0.429 | 0.97 | 0.804 | 0.443 | 0.67 | 0.383 | 0.57 | 0.527 | 0.814 | 0.672 | 0.479 | 0.414 | 0.397
LAARFYNWVSF [FLT4_Y1231_YF] | 1.61 | 1.25 | 1.26 | 0.51 | 1.55 | 1.44 | 1.27 | 0.605 | 1.02 | 1.56 | 2.55 | 1.1 | 0.988 | 0.69 | 0.476 | 0.82
TKVVHYWKWIK [KLK2_Y249_R250W] | 1.45 | 1.12 | 1.41 | 0.346 | 0.975 | 0.812 | 0.489 | 0.364 | 0.51 | 0.58 | 0.378 | 0.802 | 0.714 | 0.494 | 0.501 | 0.474
TISPYYRQSLF [CRYAA_Y48] | 0.767 | 0.678 | 0.783 | 0.414 | 0.787 | 0.859 | 0.613 | 0.474 | 0.468 | 0.653 | 0.479 | 0.745 | 0.617 | 0.526 | 0.433 | 0.492
DAKTIYDFTDT [PDK1_Y136_A134T] | 0.58 | 0.46 | 0.748 | 3.52 | 1.07 | 1.07 | 0.508 | 0.604 | 1.48 | 0.729 | 1.61 | 0.876 | 0.724 | 0.696 | 1.33 | 3.32
RSAGKYDVYFI [MECP2_Y120_L124F] | 0.804 | 0.639 | 0.923 | 5.26 | 1.34 | 1.09 | 0.535 | 0.467 | 1.02 | 0.484 | 0.464 | 0.925 | 0.923 | 0.691 | 4.46 | 3.15
TEQDPYNNIDR [MMUT_Y364_V368D] | 0.731 | 2.23 | 0.798 | 0.505 | 1.06 | 1.08 | 0.728 | 0.565 | 0.475 | 0.641 | 0.486 | 0.791 | 0.658 | 0.638 | 0.501 | 0.486
